The record followed here is publication PMC7354924.

Some results are limits rather than exact numbers.

Assay [1] concerns the target GDF5 variant Arg438Leu (human) (UniProt P43026). The experiment in a line: SPR; GDF5 wild type (500 RU), Arg438Ala (702 RU) or Arg438Leu (977 RU) amine-coupled to a GLC sensor chip; RGMECD proteins from FreeStyle 293 cells as analytes, six concentrations (log2 series from 40, 30, 20 or 10 nM), 100 µl/min; 20 mM HEPES pH 7.4, 500 mM NaCl, 3.4 mM EDTA, 0.005% (v/v) Tween 20; kon and koff fitted globally, Kd = koff/kon; two independent experiments; apparent.

The target in assay [2] is GDF5 variant Arg438Ala (human) (UniProt P43026). The assay is described as above.
Assay [3] concerns the target growth differentiation factor 5 (GDF5), wild type (human) (UniProt P43026). The assay is described as above.
The target of assay [4] is bone morphogenetic protein 2 (BMP2) (human) (UniProt P12643). The experiment in a line: SPR; ProteOn XPR36; BMP2 (570 RU), GDF5 (470 RU), TGF-β2 (300 RU) or activin A (350 RU) amine-coupled to a GLC sensor chip; analyte perfused (RGMB 50 to 1.56 nM at 150 or 100 µl/min; BMPR1A 1000 to 31.25 nM at 100 µl/min); 20 mM HEPES pH 7.4, 500 mM NaCl, 3.4 mM EDTA, 0.005% (v/v) Tween 20; 25 °C; Langmuir 1:1 kinetic fit (parameters local for RGMB), Kd = koff/kon; apparent. For orientation: Surface plasmon resonance follows binding to a sensor surface in real time, without labels.

The target of assay [5] is growth differentiation factor 5 (GDF5), wild type (human) (UniProt P43026). Described as above.
Assay [6] has as its target bone morphogenetic protein 2 (BMP2) (human) (UniProt P12643).
Assay [7] has as its target growth differentiation factor 5 (GDF5), wild type (human) (UniProt P43026).
Assay [8] has as its target GDF5 variant Tyr487Lys/Gln489Asp (UniProt P43026). The assay is described as follows: SEC-MALS; RGMBND–GDF5(Tyr487Lys/Gln489Asp)–ActR2bECD complex, 1 mg/mL, Superdex 200 HR 10/30, 0.5 M NaCl, 20 mM Hepes pH 7.4, 21 °C. A general note: Size exclusion chromatography separates by hydrodynamic size, large species first.
The target of assay [9] is bone morphogenetic protein 2 (BMP2) (human) (UniProt P12643). The assay is described as follows: SPR; ProteOn XPR36; BMP2 (570 RU) or GDF5 (470 RU) amine-coupled to a GLC sensor chip; ActR2b ectodomain perfused at 6 µM to 187.5 nM, 100 µl/min; 0.005% (v/v) Tween 20 buffer; Kd from the dose-dependency of equilibrium binding, one-site model; apparent.

Chain of growth differentiation factor 5 (GDF5), wild type (human) (P43026 28-501): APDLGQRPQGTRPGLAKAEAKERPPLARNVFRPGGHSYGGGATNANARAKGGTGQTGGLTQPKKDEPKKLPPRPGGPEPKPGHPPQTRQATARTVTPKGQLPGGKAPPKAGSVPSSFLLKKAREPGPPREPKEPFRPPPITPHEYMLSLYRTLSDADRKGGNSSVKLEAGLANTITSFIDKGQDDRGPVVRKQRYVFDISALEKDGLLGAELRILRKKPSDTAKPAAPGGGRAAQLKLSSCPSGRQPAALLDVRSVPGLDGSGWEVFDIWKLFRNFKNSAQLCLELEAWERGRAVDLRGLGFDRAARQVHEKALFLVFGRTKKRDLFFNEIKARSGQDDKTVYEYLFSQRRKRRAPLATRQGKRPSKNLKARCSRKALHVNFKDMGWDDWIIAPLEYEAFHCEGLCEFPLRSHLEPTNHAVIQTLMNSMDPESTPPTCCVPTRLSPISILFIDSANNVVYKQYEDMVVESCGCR
Chain of GDF5 variant Arg438Ala (human) (P43026 28-501 R438A): as the sequence (P43026 28-501) above, with R411A counted along it
Chain of bone morphogenetic protein 2 (BMP2) (human) (P12643 24-396): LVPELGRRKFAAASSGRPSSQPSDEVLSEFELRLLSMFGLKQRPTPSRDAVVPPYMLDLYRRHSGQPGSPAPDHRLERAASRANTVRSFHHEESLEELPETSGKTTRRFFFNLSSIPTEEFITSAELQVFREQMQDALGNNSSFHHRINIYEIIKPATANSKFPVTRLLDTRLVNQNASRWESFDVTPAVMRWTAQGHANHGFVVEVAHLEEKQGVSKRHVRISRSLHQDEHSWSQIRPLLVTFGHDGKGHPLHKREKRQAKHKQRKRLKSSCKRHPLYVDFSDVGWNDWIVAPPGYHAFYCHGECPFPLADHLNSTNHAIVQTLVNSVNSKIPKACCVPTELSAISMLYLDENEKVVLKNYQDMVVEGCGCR
Chain of GDF5 variant Arg438Leu (human) (P43026 28-501 R438L): as the sequence (P43026 28-501) above, with R411L counted along it
Chain of GDF5 variant Tyr487Lys/Gln489Asp (P43026 28-501 Y487K/Q489D): as the sequence (P43026 28-501) above, with Y460K, Q462D counted along it

B1: full-length extracellular domain of RGMA (Cys48-Arg423) from FreeStyle 293 cells (domain or fragment)
chain: CKILKCNSEFWSATSGSHAPASDDTPEFCAALRSYALCTRRTARTCRGDLAYHSAVHGIEDLMSQHNCSKDGPTSQPRLRTLPPAGDSQERSDSPEICHYEKSFHKHSATPNYTHCGLFGDPHLRTFTDRFQTCKVQGAWPLIDNNYLNVQVTNTPVLPGSAATATSKLTIIFKNFQECVDQKVYQAEMDELPAAFVDGSKNGGDKHGANSLKITEKVSGQHVEIQAKYIGTTIVVRQVGRYLTFAVRMPEEVVNAVEDWDSQGLYLCLRGCPLNQQIDFQAFHTNAEGTGARRLAAASPAPTAPETFPYETAVAKCKEKLPVEDLYYQACVFDLLTTGDVNFTLAAYYALEDVKMLHSNKDKLHLYERTRDLPGR
As for B1, in assay [1], the Kd stood at 1.4 nM, the koff stood at 0.00042 s⁻¹ and the kon is 300000 M⁻¹ s⁻¹. In assay [2], the Kd is 1.7 nM, the koff was 0.00045 s⁻¹ and the kon was found to be 270000 M⁻¹ s⁻¹. In assay [3], the Kd came out at 1.3 nM, the koff was 0.00052 s⁻¹ and the kon worked out at 420000 M⁻¹ s⁻¹.

B2: soluble mature RGMB (Gln49-Gly412) produced in insect cells (domain or fragment)
chain: QQPAQCRIQKCTTDFVSLTSHLNSAVDGFDSEFCKALRAYAGCTQRTSKACRGNLVYHSAVLGISDLMSQRNCSKDGPTSSTNPEVTHDPCNYHSHAGAREHRRGDQNPPSYLFCGLFGDPHLRTFKDNFQTCKVEGAWPLIDNNYLSVQVTNVPVVPGSSATATNKITIIFKAHHECTDQKVYQAVTDDLPAAFVDGTTSGGDSDAKSLRIVERESGHYVEMHARYIGTTVFVRQVGRYLTLAIRMPEDLAMSYEESQDLQLCVNGCPLSERIDDGQGQVSAILGHSLPRTSLVQAWPGYTLETANTQCHEKMPVKDIYFQSCVFDLLTTGDANFTAAAHSALEDVEALHPRKERWHIFPSSG
Consider B2, for which, in [4], the koff was determined as 0.011 s⁻¹ and the kon amounted to 5.3e+06 M⁻¹ s⁻¹. Moreover, in [5], the koff was found to be 0.0025 s⁻¹ and the kon is 1.8e+06 M⁻¹ s⁻¹. For the same molecule, in assay [6], the Fig. S3C: IC50 of soluble RGMB for inhibition of BMP2 (10 nM)-induced alkaline phosphatase expression in ATDC5 cells is > 1500 nM; the Fig. S3C: inhibitory constant Ki of soluble RGMB (Cheng-Prusoff, from EC50 and IC50) for BMP2-induced alkaline phosphatase expression in ATDC5 cells was > 500 nM; the Fig. S3G: IC50 of soluble RGMB for inhibition of BMP2 (10 nM)-induced SMAD signaling (BRE-Luc reporter) in C3H10T1/2 cells amounted to 41 nM. In assay [7], this molecule yielded a Fig. S3D: IC50 of soluble RGMB for inhibition of GDF5 (20 nM)-induced alkaline phosphatase expression in ATDC5 cells of 166 nM; a Fig. S3D: inhibitory constant Ki of soluble RGMB (from EC50 and IC50) for GDF5-induced alkaline phosphatase expression in ATDC5 cells of 85 nM; a Fig. S3H: IC50 of soluble RGMB for inhibition of GDF5 (10 nM)-induced SMAD signaling (BRE-Luc reporter) in C3H10T1/2 cells of 47 nM.

B3: full-length extracellular domain of RGMB (Gln49-Gly412) from FreeStyle 293 cells (domain or fragment)
chain: B2 chain
Take B3: in assay [1], the Kd was 1.1 nM, the koff is 0.0011 s⁻¹ and the kon stood at 1e+06 M⁻¹ s⁻¹. In addition, in assay [2], the Kd worked out at 1.5 nM, the koff turned out to be 0.0015 s⁻¹ and the kon amounted to 1e+06 M⁻¹ s⁻¹. In [3], the Kd was 3.7 nM, the koff was 0.0016 s⁻¹ and the kon was determined as 420000 M⁻¹ s⁻¹.

B4: ActR2b extracellular domain (ActR2bECD) (receptor)
chain: SGRGEAETRECIYYNANWELERTNQSGLERCEGEQDKRLHCYASWRNSSGTIELVKKGCWLDDFNCYDRQECVATEENPQVYFCCCEGNFCNERFTHLPEAGGPEVTYEPPPTAPTLLT
For B4, in assay [8], the stoichiometry N (ActR2b per GDF5 dimer (2:2:2 by chains)) was found to be 2.

B5: murine activin type-2 receptor ActR2b, soluble ectodomain (residues Gly20 to Glu127) (receptor)
chain: GRGEAETRECIYYNANWELERTNQSGLERCEGEQDKRLHCYASWRNSSGTIELVKKGCWLDDFNCYDRQECVATEENPQVYFCCCEGNFCNERFTHLPEPGGPEVTYE
Take B5: in assay [9], the Kd is 2700 nM.

B6: full-length extracellular domain of RGMC (Gln36-Asp400) from FreeStyle 293 cells (domain or fragment)
chain: QCKILRCNAEYVSSTLSLRGGGSSGALRGGGGGGRGGGVGSGGLCRALRSYALCTRRTARTCRGDLAFHSAVHGIEDLMIQHNCSRQGPTAPPPPRGPALPGAGSGLPAPDPCDYEGRFSRLHGRPPGFLHCASFGDPHVRSFHHHFHTCRVQGAWPLLDNDFLFVQATSSPMALGANATATRKLTIIFKNMQECIDQKVYQAEVDNLPVAFEDGSINGGDRPGGSSLSIQTANPGNHVEIQAAYIGTTIIIRQTAGQLSFSIKVAEDVAMAFSAEQDLQLCVGGCPPSQRLSRSERNRRGAITIDTARRLCKEGLPVEDAYFHSCVFDVLISGDPNFTVAAQAALEDARAFLPDLEKLHLFPSD
Regarding B6, the Kd in assay [1] was 2.2 nM; in assay [2], 2.3 nM; in [3], 2.8 nM. The koff in assay [1] was found to be 0.00041 s⁻¹; in assay [2], 0.00026 s⁻¹; in assay [3], 0.00064 s⁻¹. For the same molecule, the values for the kon in [1], in assay [2] and in assay [3] were 190000 M⁻¹ s⁻¹, 160000 M⁻¹ s⁻¹ and 240000 M⁻¹ s⁻¹, respectively.

By koff is commonly meant the rate constant with which the complex falls apart. The kon is the second-order rate constant of association.
